Test results taken from article PMC10397247.
Blank lines part the entries; values can stand above or below the binder they belong to.

Assays:
4H949-bA = target: T1, 4H949-bA; experiment: two-hybrid library CCNG1;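 note: natural log of median RNA to DNA barcode read ratio; higher means stronger binding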
T1 chain: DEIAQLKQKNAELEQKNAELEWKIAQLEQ

4H2760-bA = target: T2, 4H2760-bA; experiment: two-hybrid library CCNG1;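 note: natural log of median RNA to DNA barcode read ratio; higher means stronger binding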
T2 chain: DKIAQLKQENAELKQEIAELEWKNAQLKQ

4H626-bA = target: T3, 4H626-bA; experiment: two-hybrid library CCNG1;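 note: natural log of median RNA to DNA barcode read ratio; higher means stronger binding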
T3 chain: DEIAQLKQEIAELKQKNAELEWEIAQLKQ

4H3381-bA = target: T4, 4H3381-bA; experiment: two-hybrid library CCNG1;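 note: natural log of median RNA to DNA barcode read ratio; higher means stronger binding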
T4 chain: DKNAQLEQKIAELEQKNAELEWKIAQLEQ

4H2931-bA = target: T5, 4H2931-bA; experiment: two-hybrid library CCNG1;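 note: natural log of median RNA to DNA barcode read ratio; higher means stronger binding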
T5 chain: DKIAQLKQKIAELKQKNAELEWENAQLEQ

4H349-bA = target: T6, 4H349-bA; experiment: two-hybrid library CCNG1;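 note: natural log of median RNA to DNA barcode read ratio; higher means stronger binding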
T6 chain: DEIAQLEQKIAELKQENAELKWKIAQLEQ

4H2859-bA = target: T7, 4H2859-bA; experiment: two-hybrid library CCNG1
T7 chain: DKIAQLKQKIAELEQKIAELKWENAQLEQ

4H932-bA = target: T8, 4H932-bA; experiment: two-hybrid library CCNG1
T8 chain: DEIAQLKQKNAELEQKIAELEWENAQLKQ

4H796-bA = target: T9, 4H796-bA; experiment: two-hybrid library CCNG1
T9 chain: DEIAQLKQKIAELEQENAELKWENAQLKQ

4H3364-bA = target: T10, 4H3364-bA; experiment: two-hybrid library CCNG1
T10 chain: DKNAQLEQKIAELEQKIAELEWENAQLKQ

4H967-bN = target: T11, 4H967-bN; experiment: two-hybrid library CCNG1
T11 chain: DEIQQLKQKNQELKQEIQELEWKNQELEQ

4H56-bA = target: T12, 4H56-bA; experiment: two-hybrid library CCNG1
T12 chain: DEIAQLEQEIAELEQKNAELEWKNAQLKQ

4H3041-bA = target: T13, 4H3041-bA; experiment: two-hybrid library CCNG1
T13 chain: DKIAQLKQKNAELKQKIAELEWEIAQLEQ

4H3297-bA = target: T14, 4H3297-bA; experiment: two-hybrid library CCNG1
T14 chain: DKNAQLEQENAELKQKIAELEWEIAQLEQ

4H730-bA = target: T15, 4H730-bA; experiment: two-hybrid library CCNG1
T15 chain: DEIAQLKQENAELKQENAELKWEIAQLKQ

4H2760-bN = target: T16, 4H2760-bN; experiment: two-hybrid library CCNG1
T16 chain: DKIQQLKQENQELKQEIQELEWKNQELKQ

4H1864-AA = target: T17, 4H1864-AA; experiment: two-hybrid library CCmax
T17 chain: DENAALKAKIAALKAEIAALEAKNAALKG

4H745-AA = target: T18, 4H745-AA; experiment: two-hybrid library CCmax; details: mean of both orientations
T18 chain: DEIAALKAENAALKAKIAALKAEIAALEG

4H2274-AA = target: T19, 4H2274-AA; experiment: two-hybrid library CCmax; details: mean of both orientations
T19 chain: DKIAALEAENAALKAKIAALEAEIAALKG

4H2438-AA = target: T20, 4H2438-AA; experiment: two-hybrid library CCmax; details: mean of both orientations
T20 chain: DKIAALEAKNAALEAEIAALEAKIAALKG

4H3753-AA = target: T21, 4H3753-AA; experiment: two-hybrid library CCmax; details: mean of both orientations
T21 chain: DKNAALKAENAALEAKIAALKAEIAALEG

4H2725-AA = target: T22, 4H2725-AA; experiment: two-hybrid library CCmax; details: mean of both orientations
T22 chain: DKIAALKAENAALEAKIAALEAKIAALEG

4H3590-AA = target: T23, 4H3590-AA; experiment: two-hybrid library CCmax; details: mean of both orientations
T23 chain: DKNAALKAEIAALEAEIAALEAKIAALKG

4H3165-AA = target: T24, 4H3165-AA; experiment: two-hybrid library CCmax; details: mean of both orientations
T24 chain: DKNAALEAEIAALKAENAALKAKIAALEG

4H570-AA = target: T25, 4H570-AA; experiment: two-hybrid library CCmax; details: mean of both orientations
T25 chain: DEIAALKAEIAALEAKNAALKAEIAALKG

4H850-AA = target: T26, 4H850-AA; experiment: two-hybrid library CCmax; details: mean of both orientations
T26 chain: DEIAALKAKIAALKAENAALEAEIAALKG

4H629-AA = target: T27, 4H629-AA; experiment: two-hybrid library CCmax; details: mean of both orientations
T27 chain: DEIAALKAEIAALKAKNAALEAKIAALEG

4H485-AA = target: T28, 4H485-AA; experiment: two-hybrid library CCmax; details: mean of both orientations
T28 chain: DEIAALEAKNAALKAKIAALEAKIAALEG

4H310-AA = target: T29, 4H310-AA; experiment: two-hybrid library CCmax; details: mean of both orientations
T29 chain: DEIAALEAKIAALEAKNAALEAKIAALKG

4H536-AA = target: T30, 4H536-AA; experiment: two-hybrid library CCmax; details: mean of both orientations
T30 chain: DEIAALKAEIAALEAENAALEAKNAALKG

4H3130-AA = target: T31, 4H3130-AA; experiment: two-hybrid library CCmax; details: mean of both orientations
T31 chain: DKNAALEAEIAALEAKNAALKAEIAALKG

4H891-AA = target: T32, 4H891-AA; experiment: two-hybrid library CCmax; details: mean of both orientations
T32 chain: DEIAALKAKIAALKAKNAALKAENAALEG

4H2109-AA = target: T33, 4H2109-AA; experiment: two-hybrid library CCmax; details: mean of both orientations
T33 chain: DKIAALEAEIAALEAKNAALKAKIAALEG

4H3865-AA = target: T34, 4H3865-AA; experiment: two-hybrid library CCmax; details: mean of both orientations
T34 chain: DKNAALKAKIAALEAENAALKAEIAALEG

4H2330-AA = target: T35, 4H2330-AA; experiment: two-hybrid library CCmax; details: mean of both orientations
T35 chain: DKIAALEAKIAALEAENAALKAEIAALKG

4H2649-AA = target: T36, 4H2649-AA; experiment: two-hybrid library CCmax; details: mean of both orientations
T36 chain: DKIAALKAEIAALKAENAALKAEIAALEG

4H909-AA = target: T37, 4H909-AA; experiment: two-hybrid library CCmax; details: mean of both orientations
T37 chain: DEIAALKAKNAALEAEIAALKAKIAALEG

4H797-AA = target: T38, 4H797-AA; experiment: two-hybrid library CCmax; details: mean of both orientations
T38 chain: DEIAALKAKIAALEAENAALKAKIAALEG

4H2253-AA = target: T39, 4H2253-AA; experiment: two-hybrid library CCmax; details: mean of both orientations
T39 chain: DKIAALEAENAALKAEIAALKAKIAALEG

4H2162-AA = target: T40, 4H2162-AA; experiment: two-hybrid library CCmax; details: mean of both orientations
T40 chain: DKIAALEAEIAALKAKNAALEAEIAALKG

4H3016-AA = target: T41, 4H3016-AA; experiment: two-hybrid library CCmax; details: mean of both orientations
T41 chain: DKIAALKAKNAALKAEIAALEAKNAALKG

4H930-AA = target: T42, 4H930-AA; experiment: two-hybrid library CCmax; details: mean of both orientations
T42 chain: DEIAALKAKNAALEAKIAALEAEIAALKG

4H94-AA = target: T43, 4H94-AA; experiment: two-hybrid library CCmax; details: mean of both orientations
T43 chain: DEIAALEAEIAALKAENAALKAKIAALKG

4H2698-AA = target: T44, 4H2698-AA; experiment: two-hybrid library CCmax; details: mean of both orientations
T44 chain: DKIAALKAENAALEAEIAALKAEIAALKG

4H3395-AA = target: T45, 4H3395-AA; experiment: two-hybrid library CCmax; details: mean of both orientations
T45 chain: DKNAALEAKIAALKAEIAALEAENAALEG

4H710-AA = target: T46, 4H710-AA; experiment: two-hybrid library CCmax; details: mean of both orientations
T46 chain: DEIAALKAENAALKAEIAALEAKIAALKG

4H3009-AA = target: T47, 4H3009-AA; experiment: two-hybrid library CCmax; details: mean of both orientations
T47 chain: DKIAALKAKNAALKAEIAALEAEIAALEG

4H2389-AA = target: T48, 4H2389-AA; experiment: two-hybrid library CCmax; details: mean of both orientations
T48 chain: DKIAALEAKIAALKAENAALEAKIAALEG

4H3697-AA = target: T49, 4H3697-AA; experiment: two-hybrid library CCmax; details: mean of both orientations
T49 chain: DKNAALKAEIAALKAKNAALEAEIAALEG

4H2473-AA = target: T50, 4H2473-AA; experiment: two-hybrid library CCmax; details: mean of both orientations
T50 chain: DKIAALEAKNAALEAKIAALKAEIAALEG

4H458-AA = target: T51, 4H458-AA; experiment: two-hybrid library CCmax; details: mean of both orientations
T51 chain: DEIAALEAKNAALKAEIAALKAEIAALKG

4H3381-AA = target: T52, 4H3381-AA; experiment: two-hybrid library CCmax; details: mean of both orientations
T52 chain: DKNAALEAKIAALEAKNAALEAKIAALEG

4H3410-AA = target: T53, 4H3410-AA; experiment: two-hybrid library CCmax; details: mean of both orientations
T53 chain: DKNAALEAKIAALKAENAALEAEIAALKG

4H1877-AA = target: T54, 4H1877-AA; experiment: two-hybrid library CCmax; details: mean of both orientations
T54 chain: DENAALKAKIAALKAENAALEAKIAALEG

4H2865-AA = target: T55, 4H2865-AA; experiment: two-hybrid library CCmax; details: mean of both orientations
T55 chain: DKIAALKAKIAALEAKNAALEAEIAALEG

4H3120-AA = target: T56, 4H3120-AA; experiment: two-hybrid library CCmax; details: mean of both orientations
T56 chain: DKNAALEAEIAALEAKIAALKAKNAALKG

interaction score (4H949-bA): -1.14 | interaction score (4H2760-bA): 0.895 | interaction score (4H626-bA): -2.94 | interaction score (4H3381-bA): -0.726 | interaction score (4H2931-bA): -0.0923 | interaction score (4H349-bA): -0.95 | interaction score (4H2859-bA): 0.0768 | interaction score (4H932-bA): 0.295 | interaction score (4H796-bA): -0.576 | interaction score (4H3364-bA): 0.448 | interaction score (4H967-bN): -2.38 | interaction score (4H56-bA): -1.54 | interaction score (4H3041-bA): 0.518 | interaction score (4H3297-bA): 1.18 | interaction score (4H730-bA): -0.287 | interaction score (4H2760-bN): -1.33
B1: 4H2760-bA (peptide)
chain: DKIAQLKQENAELKQEIAELEWKNAQLKQ

interaction score (4H1864-AA): 0.981 | interaction score (4H745-AA): -1.35 | interaction score (4H2274-AA): -1.75 | interaction score (4H2438-AA): 0.434 | interaction score (4H3753-AA): 0.231 | interaction score (4H2725-AA): -0.938 | interaction score (4H3590-AA): 1.23 | interaction score (4H3165-AA): -1.47 | interaction score (4H570-AA): -0.57 | interaction score (4H850-AA): 0.223 | interaction score (4H629-AA): -1.52 | interaction score (4H485-AA): -0.878 | interaction score (4H310-AA): -1.48 | interaction score (4H536-AA): 0.437 | interaction score (4H3130-AA): -0.716 | interaction score (4H891-AA): -0.897 | interaction score (4H2109-AA): -0.599 | interaction score (4H3865-AA): -1.65 | interaction score (4H2330-AA): -1.49 | interaction score (4H2649-AA): -1.17 | interaction score (4H909-AA): -1.38 | interaction score (4H797-AA): -2.09 | interaction score (4H2253-AA): -1.42 | interaction score (4H2162-AA): -1.67 | interaction score (4H3016-AA): -1.47 | interaction score (4H930-AA): -1.41 | interaction score (4H94-AA): -0.986 | interaction score (4H2698-AA): -0.664 | interaction score (4H3395-AA): 0.321 | interaction score (4H710-AA): 1.32 | interaction score (4H3009-AA): -0.905 | interaction score (4H2389-AA): 0.806 | interaction score (4H3697-AA): -1.57 | interaction score (4H2473-AA): -1.22 | interaction score (4H458-AA): -1.21 | interaction score (4H3381-AA): -1.63 | interaction score (4H3410-AA): -1.5 | interaction score (4H1877-AA): -1.45 | interaction score (4H2865-AA): -1.19 | interaction score (4H3120-AA): 0.774
B2: 4H1864-AA (peptide)
chain: DENAALKAKIAALKAEIAALEAKNAALKG
